From patent publication US20160083449A1 (FRED HUTCHINSON CANCER RESEARCH CENTER, published 2016)
Blank lines part the entries; values can stand above or below the binder they belong to.

Experiments:
[1] = target: T1, Wilms tumor protein 1 (WT-1) peptide on HLA-A*02:01 (human); assay: Kd or kinetics
T1 peptide: RMFPNAPYL

[2] = target: T2, WT-1^126-134 peptide/MHC tetramer (…, SEQ ID NO.:16, with HLA-A2), PE-conjugated (human); assay: flow cytometry of transduced PBMCs; share of tetramer-positive cells within the transduced population (Vβ+ cells minus the endogenous Vβ+ cells of the untransduced control); drawn table
T2 construct: Tetramer reagent used for staining of T cells; the source and the construct of the HLA-A2 monomers are not described; also called WT1 tetramers; WT-1 tetramer

binding result [1]: recognises
B1: P1 TCR (TCRP1) (TCR, V domains shown)
Valpha: AQKVTQAQTEISVVEKEDVTLDCVYETRDTTYYLFWYKQPPSGELVFLIRRNSFDEQNEISGRYSWNFQKSTSSFNFTITASQVVDSAVYFCALSEAHRDSNYQLIWGAGTKLIIKP
Vbeta: ETGVTQTPRHLVMGMTNKKSLKCEQHLGHNAMYWYKQSAKKPLELMFVYNFKEQTENNSVPSRFSPECPNSSHLFLHLHTLQPEDSALYLCASSQDEQFLYNEQFFGPGTRLTVL

% transduced Vβ+ tet+ [2]: 51.2%
B2: TCRP20, WT-1^126-134-specific TCR of T cell clone P20 (TCR, V domains shown)
V domain 1: QKEVEQNSGPLSVPEGAIASLNCTYSDRGSQSFFWYRQYSGKSPELIMSIYSNGDKEDGRFTAQLNKASQYVSLLIRDSQPSDSATYLCAVLEGQKLLFARGTMLKVDL
V domain 2: DVKVTQSSRYLVKRTGEKVFLECVQDMDHENMFWYRQDPGLGLRLIYFSYDVKMKEKGDIPEGYSVSREKKERFSLILESASTNQTSMYLCATSHQPQHFGDGTRLSILE
modifications: Engineered cysteine pair (alpha T179C, beta S185C, precursor numbering) gives an extra interchain disulfide.
notes: On the T cell clone

binding result [1]: recognises
B3: P20 TCR (TCRP20) (TCR, V domains shown)
Valpha: B2 V domain 1
Vbeta: DVKVTQSSRYLVKRTGEKVFLECVQDMDHENMFWYRQDPGLGLRLIYFSYDVKMKEKGDIPEGYSVSREKKERFSLILESASTNQTSMYLCATSHQPQHFGDGTRLSIL
